The results in this text go back to US20050227306.

The target in data set [1] is His6-tetraCys-X-MBP protease substrate 25-F [MBP: P0AEX9].
For data set [2], the target named is His6-tetraCys-X-MBP protease substrate 23-F [MBP: P0AEX9].
In data set [3] the target is His6-tetraCys-X-MBP protease substrate 24-F [MBP: P0AEX9].
Data set [4] has as its target At3g03410 fusion protein expressed from pVP14.
The target in data set [5] is At3g16990 fusion protein expressed from pVP15.
Data set [6] concerns the target His6-tetraCys-X-MBP protease substrate 21-F [MBP: P0AEX9].
The target of data set [7] is His6-tetraCys-X-MBP protease substrate 26-F [MBP: P0AEX9].
In data set [8] the target is His6-tetraCys-X-MBP protease substrate 22-F [MBP: P0AEX9].

B1: tobacco etch virus (TEV) protease (protein)
chain: GESLFKGPRDYNPISSTICHLTNESDGHTTSLYGIGFGPFIITNKHLFRRNNGTLLVQSLHGVFKVKNTTTLQQHLIDGRDMIIIRMPKDFPPFPQKLKFREPQREERICLVTTNFQTKSMSSMVSDTSCTFPSSDGIFWKHWIQTKDGQCGSPLVSTRDGFIVGIHSASNFTNTNNYFTSVPKNFMELLTNQEAQQWVSGWRLNADSVLWGGHKVFMSKPEEPFQPVKEATQLMNELVYSQ
Regarding B1, the relative rate of reaction (initial proteolysis rate by fluorescence anisotropy, normalised to the cognate substrate) (relative rate) was 0 in data set [1]; -0.02 in data set [2]; -0.01 in data set [3]; 0.01 in data set [6]; 1 in data set [7]; 0 in data set [8]. The “fluorescence anisotropy over time” value is “time-dependent decreases in anisotropy” in data set [4] and “a time-dependent decrease in anisotropy was observed” in data set [5]. The “fluorescence anisotropy and SDS-PAGE” value in data set [6] is recorded as “underwent a minor amount of proteolysis”. The “specific reaction rate (slope of initial proteolysis rate versus protease concentration)” value in data set [7] is on record as “TEV protease; 17.3±0.7”.
